Measurements: PMC8244301

Key:
[1] = biological target: Full-length L. rhamnosus GG SpaB (GG-SpaBFL) protein (residues 33-205) (Lactobacillus rhamnosus GG); test: BLI; conditions: group
[2] = biological target: Truncated GG-SpaB (GG-SpaB_(C-trun)) protein (residues 31-184) (Lactobacillus rhamnosus GG); test: BLI; conditions: group
[3] = biological target: Truncated L. rhamnosus GG SpaB (GG-SpaBC-trun) protein (residues 31-184) (Lactobacillus rhamnosus GG); test: BLI; GG-SpaB protein (10 uM) immobilised on aminopropylsilane (APS) biosensors; mucin Type II (~19.5-312 nM) as analyte; PBS (10 mM sodium phosphate pH 7.4, 137 mM NaCl, 2.7 mM KCl), 30 C; ~600 s association, ~900 s dissociation; 1:1 binding fit; in duplicate
[4] = biological target: Full-length L. rhamnosus GG SpaB (GG-SpaBFL) protein (residues 33-205) (Lactobacillus rhamnosus GG); test: as above

| Kd [1] [nM] | Kd [2] [nM] | Kd [3] [nM] | koff [3] [s⁻¹] | kon [3] [M⁻¹ s⁻¹] | Kd [4] [nM] | koff [4] [s⁻¹] | kon [4] [M⁻¹ s⁻¹] | Substance |
| --- | --- | --- | --- | --- | --- | --- | --- | --- |
| 0.3 | 2.6 |  |  |  |  |  |  | porcine gastric mucin (Type II) |
|  |  | 2.55 | 6.86e-05 | 26300 | 0.306 | 1.09e-05 | 35300 | porcine gastric mucin (Type II) (Sigma-Aldrich) |
